Results: patent US20250282880A1 (NUMAB THERAPEUTICS, published 2025)
Like-named read-outs stand apart in the source and are kept apart here.

B1: PRO1517 (scFv)
scFv: DIQMTQSPSSLSASVGDRVTITCQASEDIESYLAWYQQKPGKAPKLLIYRASTLAYGVPSRFSGSGSGTDFTLTISSLQPEDFATYYCLGSSYSTGSNIFGTGTKVTVLGGGGGSGGGGSGGGGSGGGGSEVQLVESGGGLVQPGGSLRLSCAASGFSSSSAHYMCWVRQAPGKGLEWIGCIYAGSRGSTYYASWAKGRFTISRDNSKNTVYLQMNSLRAEDTAVYYCARAAFVNRGVSWIWPYYFSLWGQGTLVTVSS
notes: humanized scFv (VL-linker-VH), CDR graft of rabbit clone 44-34-C10; also called 44-34-C10-sc01; 44-34-C10 sc01
B2: PRO1535 (scFv)
scFv: DIQMTQSPSSLSASVGDRVTITCQASEDIESYLAWYQQKPGKPPKLLIYRASTLAYGVPSRFSGSGSGTDFTLTISSLQPEDFATYYCLGSSYSTGSNIFGTGTKVTVLGGGGGSGGGGSGGGGSGGGGSESQLVESGGGLVQPGGSLRLSCAASGFSSSSAHYMCWVRQAPGKGLEWIACIYAGSRGSTYYASWAKGRFTISKDNSKNTVYLQMNSLRAEDTAVYFCARAAFVNRGVSWIWPYYFSLWGQGTLVTVSS
notes: humanized scFv (VL-linker-VH), Full graft of rabbit clone 44-34-C10; also called 44-34-C10-sc04; 44-34-C10 sc04
B3: PRO1898 (scFv)
scFv: DIQMTQSPSSLSARVGDRVTITCQASEDIESYLAWYQQKPGKAPKLLIYRASTLAYGVPSRFSGSGSGRDFTLTISSLQPEDFATYYCLGSSYSTGSNIFGTGTKVTVLGGGGGSGGGGSGGGGSGGGGSEVQLVESGGGLVQPGGSLRLSCAASGFSSSSAHYMCWVRQAPGKGLEWIGCIYAGSRGSTYYASWAKGRFTISRDNSKNTVYLQMNSLRAEDTAVYYCARAAFVNRGVSWIWPYYFSLWGQGTLVTVSS
notes: optimized variant of PRO1517 (VL S14R, T87R, AHo numbering); scFv VL-linker-VH; also called 44-34-C10-sc08
B4: dupilumab (antibody, V domains shown)
VH: EVQLVESGGGLEQPGGSLRLSCAGSGFTFRDYAMTWVRQAPGKGLEWVSSISGSGGNTYYADSVKGRFTISRDNSKNTLYLQMNSLRAEDTAVYYCAKDRLSITIRPRYYGLDVWGQGTTVTVSS
VL: DIVMTQSPLSLPVTPGEPASISCRSSQSLLYSIGYNYLDWYLQKSGQSPQLLIYLGSNRASGVPDRFSGSGSGTDFTLKISRVEAEDVGFYYCMQALQTPYTFGQGTKLEIKR
B5: PRO1899 (scFv)
scFv: DIQMTQSPSSLSASVGDRVTITCQASEDIESYLAWYQQKPGKAPKLLIYRASTLAYGVPSRFSGSGSGTDFTLTISSLQPEDFATYYCLGSSYSTGSNIFGTGTKVTVLGGGGGSGGGGSGGGGSGGGGSEVQLVESGGGRVQPGGSLRLSCAASGFSSSSAHYMCWVRQAPGKGLEWIGCIYAGSRGSTYYASWAKGRFTISKASSTTVYLQMNSLRAEDTATYYCARAAFVNRGVSWIWPYYFSLWGQGTQVTVSS
notes: optimized variant of PRO1517 (VH L12R, V103T, L144Q and RDNSKN changed to KASST, AHo 82-87); scFv VL-linker-VH; also called 44-34-C10-sc09

What was measured:
IL-4R on HEK-Blue cells [1] = biological target: T1, IL-4R on HEK-Blue cells (human, UniProt P24394 26-825); test: cell-based or functional assay
cynomolgus IL-4R-Fc [2] = biological target: T2, cynomolgus IL-4R-Fc (cynomolgus monkey (Macaca fascicularis), UniProt A0A2K5V580 33-239); test: SPR, capture setup: cynomolgus IL-4R-Fc captured, scFv as analyte
T2 construct: also called cynomolgus IL-4R (capture setup); not shown: Fc part
Description: (§1) Affinity of the 16 humanized scFvs (derived from 5 rabbit monoclonal antibodies) to human IL-4R was determined by SPR analysis on a T200 device (Biacore, GE Healthcare). Human IL-4R-Fc was captured via an anti-human IgG-Fc coupled to a carboxylmethylated dextran surface and the scFvs were injected as analyte. After each analyte injection cycle the sensor chip was regenerated and new antigen was captured. The scFvs were measured using a dose response multi-cycle kinetic assay with seven analyte concentrations ranging from 0.12 to 90 nM diluted in running buffer. Obtained sensorgrams were fitted using a 1:1 binding model.
(§2) Cross-reactivity to cynomolgus IL-4R was measured using the same setup as for the analysis of human IL-4R affinities, with the difference that cynomolgus IL-4R-Fc was captured instead of human IL-4R-Fc. To determine affinities for marmoset IL-4R, a direct setup was used since only extracellular domain (ECD) of marmoset IL-4R was available. Marmoset ECD was immobilized directly onto the sensor chip and a titration series of scFvs was injected as analyte. To allow for comparison between KD values obtained for cynomolgus and marmoset IL-4R, affinities to cynomolgus IL-4R ECD were also determined using a direct setup.

Marmoset IL-4R ECD = biological target: T3, Marmoset IL-4R ECD (marmoset (Callithrix jacchus), UniProt Q0PIT7 26-232); test: SPR, direct setup: marmoset IL-4R ECD immobilized, scFv as analyte
T3 construct: also called marmoset monkey IL-4R
T3 sequence (Q0PIT7 entry or part of it limits assumed): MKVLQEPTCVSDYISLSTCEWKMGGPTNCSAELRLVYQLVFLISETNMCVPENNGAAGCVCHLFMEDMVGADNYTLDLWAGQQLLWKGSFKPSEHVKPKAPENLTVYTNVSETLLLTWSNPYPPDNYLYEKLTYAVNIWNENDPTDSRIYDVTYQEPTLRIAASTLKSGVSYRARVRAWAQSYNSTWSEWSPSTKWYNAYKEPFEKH
Description: as §2

cynomolgus IL-4R ECD = biological target: T4, cynomolgus IL-4R ECD (cynomolgus monkey (Macaca fascicularis), UniProt A0A2K5V556 26-232); test: SPR, direct setup: cynomolgus IL-4R ECD immobilized, scFv as analyte
T4 construct: immobilized directly on the sensor chip; also called cynomolgus IL-4R (direct setup)
T4 sequence (A0A2K5V556 entry or part of it limits assumed): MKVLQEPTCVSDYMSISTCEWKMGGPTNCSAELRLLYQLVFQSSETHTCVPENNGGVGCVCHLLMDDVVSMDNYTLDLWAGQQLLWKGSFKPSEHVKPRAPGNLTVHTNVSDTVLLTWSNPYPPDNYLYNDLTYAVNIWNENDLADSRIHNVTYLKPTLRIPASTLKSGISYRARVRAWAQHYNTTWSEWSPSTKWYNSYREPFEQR
Description: as §2

Biotinylated IL-4R [3] = biological target: T5, Biotinylated IL-4R (human, UniProt P24394 26-232, limits assumed, biotinylated); test: competitive ELISA: IL-4 coated, biotinylated IL-4R preincubated with scFv
T5 construct: also called human IL-4R; hIL-4R
Excerpt: (§3) Bound biotinylated IL-4R was then detected using streptavidin-HRP.
Potency of humanized scFvs was further determined using a competitive ELISA.

Human IL-4R-Fc [4] = biological target: T6, Human IL-4R-Fc (human, UniProt P24394 26-232); test: SPR (Biacore T200), human IL-4R-Fc captured via anti-human IgG-Fc, scFv as analyte, 1:1 model
T6 construct: not shown: Fc part (captured via anti-human IgG-Fc)
Description: as §1

IL-4R on HEK-Blue cells [5] = biological target: T1, IL-4R on HEK-Blue cells; test: cell-based or functional assay; remark: listed apart in the source
cynomolgus IL-4R-Fc [6] = biological target: T2, cynomolgus IL-4R-Fc; test: SPR, capture setup: cynomolgus IL-4R-Fc captured, scFv as analyte; remark: listed apart in the source
Biotinylated IL-4R [7] = biological target: T5, Biotinylated IL-4R; test: competitive ELISA: IL-4 coated, biotinylated IL-4R preincubated with scFv; remark: listed apart in the source
Excerpt: as §3

Human IL-4R-Fc [8] = biological target: T6, Human IL-4R-Fc; test: SPR (Biacore T200), human IL-4R-Fc captured, scFv as analyte 0.12 to 90 nM, 1:1 model
Description: as §1
The scFvs were measured using a dose response multi-cycle kinetic assay with seven analyte concentrations ranging from 0.12 to 90 nM diluted in running buffer. Obtained sensorgrams were fitted using a 1:1 binding model.

Biotinylated IL-4R [9] = biological target: T5, Biotinylated IL-4R; test: competitive ELISA: IL-4 coated, biotinylated IL-4R preincubated with antibody (plate of PRO1898)
Biotinylated IL-4R [10] = biological target: T5, Biotinylated IL-4R; test: competitive ELISA: IL-4 coated, biotinylated IL-4R preincubated with antibody (plate of PRO1899)
Biotinylated IL-4R [11] = biological target: T5, Biotinylated IL-4R; test: competitive ELISA: human IL-4 coated on the plate, biotinylated IL-4R preincubated with the antagonist, bound IL-4R detected with streptavidin-HRP; blocked ligand human IL-4
Biotinylated IL-4R [12] = biological target: T5, Biotinylated IL-4R; test: as above; remark: listed apart in the source
Biotinylated IL-4R [13] = biological target: T5, Biotinylated IL-4R; test: as above; remark: listed apart in the source
Biotinylated IL-4R [14] = biological target: T5, Biotinylated IL-4R; test: as above; remark: listed apart in the source
Biotinylated IL-4R [15] = biological target: T5, Biotinylated IL-4R; test: competitive ELISA: human IL-4 coated on the plate, biotinylated IL-4R preincubated with the antagonist, bound IL-4R detected with streptavidin-HRP; blocked ligand human IL-4 [continued) E]

Binder	IC50, neutralization of hIL-4-induced signaling in reporter gene assay (IL-4R on HEK-Blue cells [1])	IC50, neutralization of hIL-13-induced signaling in reporter gene assay (IL-4R on HEK-Blue cells [1])	rel. IC50 (IC50, dupilumab/IC50, test sample), hIL-4-induced signaling (IL-4R on HEK-Blue cells [1])	rel. IC50 (IC50, dupilumab/IC50, test sample), hIL-13-induced signaling (IL-4R on HEK-Blue cells [1])	Kd (cynomolgus IL-4R-Fc [2])	koff (cynomolgus IL-4R-Fc [2])	kon (cynomolgus IL-4R-Fc [2])	Kd (Marmoset IL-4R ECD)	koff (Marmoset IL-4R ECD)	kon (Marmoset IL-4R ECD)	Kd (cynomolgus IL-4R ECD)	koff (cynomolgus IL-4R ECD)	kon (cynomolgus IL-4R ECD)	IC50 (Biotinylated IL-4R [3])	rel. IC50 (IC50, dupilumab/IC50, test sample) (Biotinylated IL-4R [3])	Kd (Human IL-4R-Fc [4])	IC50, neutralization of hIL-4 induced signaling in reporter gene assay (IL-4R on HEK-Blue cells [5])	IC50, neutralization of hIL-13 induced signaling in reporter gene assay (IL-4R on HEK-Blue cells [5])	rel. IC50 (IC50, dupilumab/IC50, test sample), hIL-4 induced signaling (IL-4R on HEK-Blue cells [5])	rel. IC50 (IC50, dupilumab/IC50, test sample), hIL-13 induced signaling (IL-4R on HEK-Blue cells [5])	further results
B1	1.44 ng/mL	1.83 ng/mL	0.39 ratio	0.57 ratio	0.0946 nM	0.000182 s⁻¹	1.92e+06 M⁻¹ s⁻¹	0.392 nM	0.00105 s⁻¹	2.67e+06 M⁻¹ s⁻¹	0.681 nM	0.000404 s⁻¹	594000 M⁻¹ s⁻¹	0.54 ng/mL	3.46 ratio	0.0055 nM					koff (Human IL-4R-Fc [4]): 1.95e-05 s⁻¹; kon (Human IL-4R-Fc [4]): 3.55e+06 M⁻¹ s⁻¹
B2	1.15 ng/mL	2.3 ng/mL	1.02 ratio	0.99 ratio	0.165 nM	0.000264 s⁻¹	1.6e+06 M⁻¹ s⁻¹	0.787 nM	0.00254 s⁻¹	3.23e+06 M⁻¹ s⁻¹	0.376 nM	0.000238 s⁻¹	634000 M⁻¹ s⁻¹	1.92 ng/mL	0.98 ratio	0.0199 nM					koff (Human IL-4R-Fc [4]): 5.42e-05 s⁻¹; kon (Human IL-4R-Fc [4]): 2.72e+06 M⁻¹ s⁻¹
B3																	1 ng/mL	1.15 ng/mL	1.15 ratio	0.87 ratio	Kd (cynomolgus IL-4R-Fc [6]): 0.0908 nM; koff (cynomolgus IL-4R-Fc [6]): 0.000109 s⁻¹; kon (cynomolgus IL-4R-Fc [6]): 1.2e+06 M⁻¹ s⁻¹; IC50 (Biotinylated IL-4R [7]): 3.41 ng/mL; rel. IC50 (IC50, dupilumab/IC50, test sample) (Biotinylated IL-4R [7]): 1.95 ratio; Kd (Human IL-4R-Fc [8]): 0.00791 nM; koff (Human IL-4R-Fc [8]): 1.7e-05 s⁻¹; kon (Human IL-4R-Fc [8]): 2.15e+06 M⁻¹ s⁻¹
B4																	1.15 ng/mL	1 ng/mL	1 ratio	1 ratio	IC50 (Biotinylated IL-4R [9]): 6.78 ng/mL; rel. IC50 (IC50, dupilumab/IC50, test sample) (Biotinylated IL-4R [9]): 1 ratio; IC50 (Biotinylated IL-4R [10]): 6.18 ng/mL; rel. IC50 (IC50, dupilumab/IC50, test sample) (Biotinylated IL-4R [10]): 1 ratio; IC50 (read off the curve) (Biotinylated IL-4R [11]): ~2 ng/mL; IC50 (read off the curve) (Biotinylated IL-4R [12]): ~2 ng/mL; IC50 (read off the curve) (Biotinylated IL-4R [13]): ~2 ng/mL; IC50 (read off the curve) (Biotinylated IL-4R [14]): ~3 ng/mL; IC50 (read off the curve) (Biotinylated IL-4R [15]): ~2 ng/mL
B5																	0.71 ng/mL	0.56 ng/mL	1.61 ratio	1.8 ratio	Kd (cynomolgus IL-4R-Fc [6]): 0.012 nM; koff (cynomolgus IL-4R-Fc [6]): 0.00014 s⁻¹; kon (cynomolgus IL-4R-Fc [6]): 1.1e+07 M⁻¹ s⁻¹; IC50 (Biotinylated IL-4R [7]): 2.98 ng/mL; rel. IC50 (IC50, dupilumab/IC50, test sample) (Biotinylated IL-4R [7]): 2.07 ratio; Kd (Human IL-4R-Fc [8]): 0.00692 nM; koff (Human IL-4R-Fc [8]): 2.04e-05 s⁻¹; kon (Human IL-4R-Fc [8]): 2.95e+06 M⁻¹ s⁻¹
